We go through 39 variants from the RNAGym collection of RNA variant scans (doi:10.7554/elife.80360).

B1: CPEB3 Ribozyme (parent)
chain: GGGGGCCACAGCAGAAGCGUUCACGUCGCGGCCCCUGUCAGAUUCUGGUGAAUCUGCGAAUUCUGCUGU

This data set covers variants of B1. The experiment in a line: self-cleavage, relative activity (ratio to wild type); higher = more cleavage; co-transcriptional.
Regarding GGGGGACACAGCAGAAGCGUUCACGUCGCGGCCCCUGUCAGAUUCUGGUGAAUCUGCGAAUUCUCCUGU [C6A G65C], the self-cleavage was determined as 0.157.

Consider GGGGGACACAGCAGAAGCGUUCACGUCGCGGCCCCUGUCAGAUUCUGGUGAAUCUGCGAAUUCUUCUGU [C6A G65U], for which the self-cleavage worked out at 0.305.

As for GGGGGACACAGCAGAAGCGUUCACGUCGCGGCCCCUGUCAGAUUCUGGUGAAUCUGCGAAUUCUACUGU [C6A G65A], the self-cleavage was determined as 0.451.

As to GGGGGACACAGCAGAAGCCUUCACGUCGCGGCCCCUGUCAGAUUCUGGUGAAUCUGCGAAUUCUGCUGU [C6A G19C], the self-cleavage was 0.107.

For the variant GGGGGACACAGCAGAAGCAUUCACGUCGCGGCCCCUGUCAGAUUCUGGUGAAUCUGCGAAUUCUGCUGU [C6A G19A], the self-cleavage stood at 0.105.

In the case of GGGGGACACAGCAGAAGCGUUCACGUCGCGGCCCCUGUCAGAUUCUGGCGAAUCUGCGAAUUCUGCUGU [C6A U49C], the self-cleavage was found to be 0.716.

On to GGGGGACACAGCAGAAGCGUUCACGUCGCGGCCCCUGUCAGAUUCUGGGGAAUCUGCGAAUUCUGCUGU [C6A U49G], for which the self-cleavage worked out at 0.5.

Turning to GGGGGACACAGCAGAAGCGUUCACAUCGCGGCCCCUGUCAGAUUCUGGUGAAUCUGCGAAUUCUGCUGU [C6A G25A], the self-cleavage is 0.136.

As for GGGGGACACAGCAGAAGCGUUCACCUCGCGGCCCCUGUCAGAUUCUGGUGAAUCUGCGAAUUCUGCUGU [C6A G25C], the self-cleavage was found to be 0.133.

As for GGGGGACACAGCAGAAGCGUUCACUUCGCGGCCCCUGUCAGAUUCUGGUGAAUCUGCGAAUUCUGCUGU [C6A G25U], the self-cleavage is 0.1.

Consider GGGGGACACAGCAGAAGCGUUCACGUCGCGGCCCCUGUCAGAUUCUGGUGAAUCUGCGAACUCUGCUGU [C6A U61C], for which the self-cleavage was determined as 0.15.

Regarding GGGGGACACAGCAGAAGCGUUCACGUCGCGGCCCCUGUCAGAUUCUGGUGAAUCUGCGAAGUCUGCUGU [C6A U61G], the self-cleavage was determined as 0.242.

Regarding GGGGGACACAGCAGAAGCGUUCACGUCUCGGCCCCUGUCAGAUUCUGGUGAAUCUGCGAAUUCUGCUGU [C6A G28U], the self-cleavage was 0.163.

Take GGGGGACACAGCAGAAGCGUUCACGUCCCGGCCCCUGUCAGAUUCUGGUGAAUCUGCGAAUUCUGCUGU [C6A G28C]: the self-cleavage is 0.155.

As for GGGGGACACAGCAGAAGCGUUCACGUCACGGCCCCUGUCAGAUUCUGGUGAAUCUGCGAAUUCUGCUGU [C6A G28A], the self-cleavage was 0.138.

As to GGGGGGCACAGCAGAAGCGUUCCCGUCGCGGCCCCUGUCAGAUUCUGGUGAAUCUGCGAAUUCUGCUGU [C6G A23C], the self-cleavage turned out to be 0.302.

Consider GGGGGACACAGCAGAAGCGUUCACGUCGCGGCCCCUGUCAGAGUCUGGUGAAUCUGCGAAUUCUGCUGU [C6A U43G], for which the self-cleavage worked out at 0.367.

Consider GGGGGACACAGCAGAAGCGUGCACGUCGCGGCCCCUGUCAGAUUCUGGUGAAUCUGCGAAUUCUGCUGU [C6A U21G], for which the self-cleavage was 0.179.

Turning to GGGGGACACAGCAGAAGCGUACACGUCGCGGCCCCUGUCAGAUUCUGGUGAAUCUGCGAAUUCUGCUGU [C6A U21A], the self-cleavage was determined as 0.554.

Regarding GGGGGACACAGCAGAAGCGUCCACGUCGCGGCCCCUGUCAGAUUCUGGUGAAUCUGCGAAUUCUGCUGU [C6A U21C], the self-cleavage was determined as 0.287.

GGGGGGCACGGCAGAAGCGUUCACGUCGCGGCCCCUGUCAGAUUCUGGUGAAUCUGCGAAUUCUGCUGU [C6G A10G]: the self-cleavage was found to be 0.459.

With GGGGGGCACUGCAGAAGCGUUCACGUCGCGGCCCCUGUCAGAUUCUGGUGAAUCUGCGAAUUCUGCUGU [C6G A10U], the self-cleavage is 0.375.

Take GGGGGACACAGCAGAAGCGUUCACGGCGCGGCCCCUGUCAGAUUCUGGUGAAUCUGCGAAUUCUGCUGU [C6A U26G]: the self-cleavage came to 0.265.

Take GGGGGACACAGCAGAAGCGUUCACGACGCGGCCCCUGUCAGAUUCUGGUGAAUCUGCGAAUUCUGCUGU [C6A U26A]: the self-cleavage came out at 0.256.

GGGGGACACAGCAGAAGCGUUCACGUCGCGGCCCCUGUCAGAUUCUGGUGAAUCUGCGAAUUCUGCUCU [C6A G68C]: the self-cleavage turned out to be 0.889.

For GGGGGACACAGCAGAAGCGUUCACGUCGCGGCCCCUGUCAGAUUCUGGUGAAUCUGCGAAUUCUGCUAU [C6A G68A], the self-cleavage was found to be 0.881.

In the case of GGGGGACACAGCAGAAGCGUUCACGUCGCGGCCCCUGUCAGAUUCUGGUGAAUCUGCGAAUUCUGCUUU [C6A G68U], the self-cleavage is 0.939.

GGGGGACACAGCAGAACCGUUCACGUCGCGGCCCCUGUCAGAUUCUGGUGAAUCUGCGAAUUCUGCUGU [C6A G17C]: the self-cleavage was determined as 0.115.

With GGGGGACACAGCAGAAUCGUUCACGUCGCGGCCCCUGUCAGAUUCUGGUGAAUCUGCGAAUUCUGCUGU [C6A G17U], the self-cleavage came to 0.119.

Turning to GGGGGACACAGCAGAAGCGUUCACGUCGCGGCCCCUGGCAGAUUCUGGUGAAUCUGCGAAUUCUGCUGU [C6A U38G], the self-cleavage turned out to be 0.117.

On to GGGGGACACAGCAGAAGCGUUCACGUCGCGGCCCCUGCCAGAUUCUGGUGAAUCUGCGAAUUCUGCUGU [C6A U38C], for which the self-cleavage was found to be 0.35.

As to GGGGGACACAGCAGAAGCGUUCACGUCGCGGCCCCUGUCAGAUUCUGGUCAAUCUGCGAAUUCUGCUGU [C6A G50C], the self-cleavage was 0.594.

With GGGGGACACAGCAGAAGCGUUCACGUCGCGGCCCCUGUCAGAUUCUGGUUAAUCUGCGAAUUCUGCUGU [C6A G50U], the self-cleavage worked out at 0.727.

Take GGGGGACACAGCAGAAGCGUUCACGUCGCGGCCCCUGUCAGAUUCUGGUGAAUCUGCUAAUUCUGCUGU [C6A G58U]: the self-cleavage was found to be 0.695.

Regarding GGGGGACACAGCAGAAGCGUUCACGUCGCGGCCCCUGUCAGAUUCUGGUGAAUCUGCAAAUUCUGCUGU [C6A G58A], the self-cleavage came out at 0.443.

With GGGGGGCACAGCAGCAGCGUUCACGUCGCGGCCCCUGUCAGAUUCUGGUGAAUCUGCGAAUUCUGCUGU [C6G A15C], the self-cleavage was determined as 0.122.

On to GGGGGACACAGCAGAAGCGUUCACGUCGCGGCCCCUGUCAGAUUCUGGUGAAUCUCCGAAUUCUGCUGU [C6A G56C], for which the self-cleavage was 0.225.

As to GGGGGACACAGCAGAAGCGUUCACGUCGCGGCCCCUGUCAGAUUCUGGUGAAUCUGCGAAUUCAGCUGU [C6A U64A], the self-cleavage turned out to be 0.307.

GGGGGACACAGCAGAAGCGUUCACGUCGCGGCCCCUGUCAGAUUCUGGUGAAUCUGCGAAUUCGGCUGU [C6A U64G]: the self-cleavage came out at 0.469.
